# Measured values taken from patent publication US20250043302A1, “MUTATED HYDROXYPHENYLPYRUVATE DIOXYGENASE POLYPEPTIDE, AND CODING GENE AND USE THEREOF” (BEIJING DABEINONG BIOTECHNOLOGY CO., LTD., priority 2021, published 2025).
# How the values were obtained:
# [1] = system: Arabidopsis thaliana T1 plants; assay: Mesotrione tolerance of transgenic Arabidopsis thaliana T1 plants (spray, bleached leaf area grade, damage score); format: in vivo; set-up: Scores: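 damage score 0-100 computed as Σ(N×S)/(T×M)×100 over grades 0-3 with higher meaning more damage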; settings: 7 DAT, Table 3; for Scores: pesticide damage score 0-100
# Outline: (§1)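 Damage was assessed by bleaching grade (0 none; 1 <50%; 2 >50%; 3 100% of leaf area) one week after spraying. Sprays on 18-day-old T1 and wild-type plants used field-rate multiples: topramezone 25–200, isoxaflutole 35–280, mesotrione 52.5–420 g ai/ha.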
# [2] = system: Arabidopsis thaliana T1 plants; assay: Isoxaflutole tolerance of transgenic Arabidopsis thaliana T1 plants (spray, bleached leaf area grade, damage score); format: in vivo; settings: for Classification and statistics of the grade of pesticide damage Grade 0 / Classification and statistics of the grade of pesticide damage Grade 1 / Classification and statistics of the grade of pesticide damage Grade 2 / Classification and statistics of the grade of pesticide damage Grade 3: number of plants in grade; for Classification and statistics of the grade of pesticide damage: Grade 0 / Classification and statistics of the grade of pesticide damage: Grade 1 / Classification and statistics of the grade of pesticide damage: Grade 2 / Classification and statistics of the grade of pesticide damage: Grade 3: number of plants;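 for Scores: Weighted damage index from 0 to 100 where higher means more damage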
# Outline: as §1
# [3] = number of plants, mesotrione 420 g ai/ha (4×)
# [4] = isoxaflutole 140 g ai/ha (2×), 7 DAT, Table 2
# [5] = isoxaflutole 280 g ai/ha (4×), 7 DAT, Table 2
molecule,measurement,setting,value
"AsHPPDm-F372A-02: nucleotide sequence encoding Avena sativa HPPD with F372A; vector DBN11728 (nucleic acid, AsHPPDm-F372A-02 Nucleotide Sequence, vector DBN11728) DNA: ATGCCACCTACTCCAGCTACAGCTACTGGTGCTGCTGCTGCTGCCGTTACTCCTGAGCACGCTGCCAGGTCATTCCCCAGGGTGGTTCGCGTGAACCCCAGATCTGATAGGTTCCCAGTTCTGAGCTTCCACCATGTTGAGCTGTGGTGCGCTGATGCTGCTTCTGCTGCTGGCAGGTTCTCTTTCGCTCTTGGTGCTCCACTCGCTGCTAGATCTGATCTGTCTACAGGAAATAGCGCTCATGCCTCACTCCTGCTTCGCTCAGGTGCTTTGGCCTTCCTCTTCACCGCTCCATATGCTCCCCCACCTCAGGAGGCTGCTACTGCTGCTGCTACAGCCTCCATTCCAAGCTTCTCAGCTGATGCCGCTAGAACCTTCGCTGCTGCTCATGGACTTGCCGTGAGGTCTGTTGGTGTTCGCGTGGCTGATGCTGCTGAGGCTTTCAGAGTTTCCGTTGCCGGCGGAGCTAGGCCAGCTTTCGCTCCTGCTGATTTGGGACATGGTTTCGGCCTGGCTGAGGTTGAGCTTTACGGTGACGTGGTTCTCCGCTTCGTGTCTTACCCAGATGAGACTGACCTGCCTTTCCTTCCCGGCTTCGAGAGAGTTTCCTCTCCTGGTGCCGTGGATTACGGCCTGACAAGGTTCGACCACGTGGTTGGAAACGTTCCCGAGATGGCTCCAGTGATCGATTACATGAAGGGCTTCCTTGGATTCCATGAGTTCGCCGAGTTCACTGCTGAGGACGTGGGAACCACTGAGTCCGGTTTGAACTCTGTGGTTCTCGCCAACAATTCTGAGGCTGTTTTGCTCCCTCTGAATGAGCCTGTGCATGGAACCAAGAGGAGAAGCCAGATTCAAACTTACCTGGAGTACCACGGTGGCCCTGGAGTTCAGCATATCGCCCTTGCTTCTAATGATGTGTTGCGCACACTCAGAGAGATGCGCGCCAGAACCCCCATGGGAGGTTTCGAGTTCATGGCCCCACCACAGGCTAAGTACTACGAGGGCGTTAGAAGGATTGCTGGAGACGTGTTGAGCGAGGAGCAGATCAAGGAGTGCCAAGAGCTGGGTGTTCTTGTGGATAGGGATGACCAGGGCGTTCTGCTTCAAATTGCCACTAAGCCAGTGGGCGACCGCCCTACATTCTTCCTTGAGATGATTCAAAGAATCGGCTGCATGGAGAAGGATGAGGTTGGACAGGAGTACCAAAAGGGCGGATGCGGTGGCTTCGGAAAGGGTAACTTCAGCGAGTTGTTCAAGTCAATCGAGGACTACGAGAAGAGCCTCGAGGTGAAGCAGTCAGTGGTTGCCCAAAAGTCCTGA",Classification and statistics of the grade of pesticide damage: Grade 3,"[1]; number of plants, mesotrione 210 g ai/ha (two-fold field concentration)",0
same,Classification and statistics of the grade of pesticide damage: Grade 0,[1]; [3],0
same,Classification and statistics of the grade of pesticide damage: Grade 1,[1]; [3],8
same,Classification and statistics of the grade of pesticide damage: Grade 2,[1]; [3],8
same,Classification and statistics of the grade of pesticide damage: Grade 3,[1]; [3],0
same,Scores,[1]; mesotrione 210 g ai/ha (two-fold field concentration),31
same,Scores,[1]; mesotrione 420 g ai/ha (4×),50
same,tolerance to isoxaflutole (in words),[2]; in vivo,different degrees of tolerance
same,Resistance evaluation,[2]; isoxaflutole 140 g ai/ha,Moderately
same,Scores,[2]; isoxaflutole 140 g ai/ha,33
same,Resistance evaluation,[2]; [4],moderately
same,Classification and statistics of the grade of pesticide damage Grade 0,[2]; isoxaflutole 140 g ai/ha,5
same,Classification and statistics of the grade of pesticide damage Grade 1,[2]; isoxaflutole 140 g ai/ha,6
same,Classification and statistics of the grade of pesticide damage Grade 2,[2]; isoxaflutole 140 g ai/ha,5
same,Classification and statistics of the grade of pesticide damage Grade 3,[2]; isoxaflutole 140 g ai/ha,0
same,Resistance evaluation,[2]; isoxaflutole 280 g ai/ha,Poorly
same,Scores,[2]; isoxaflutole 280 g ai/ha,67
same,Resistance evaluation,[2]; [5],poorly resistant (poorly resistant plants (scores 34-67))
same,Classification and statistics of the grade of pesticide damage Grade 0,[2]; isoxaflutole 280 g ai/ha,0
same,Classification and statistics of the grade of pesticide damage Grade 1,[2]; isoxaflutole 280 g ai/ha,0
same,Classification and statistics of the grade of pesticide damage Grade 2,[2]; isoxaflutole 280 g ai/ha,16
same,Classification and statistics of the grade of pesticide damage Grade 3,[2]; isoxaflutole 280 g ai/ha,0
same,tolerance to isoxaflutole (resistance class),[2]; isoxaflutole at four-fold field concentration,poorly-resistant
same,tolerance to isoxaflutole (resistance class),[2]; isoxaflutole at two-fold field concentration,moderately-resistant
same,Classification and statistics of the grade of pesticide damage: Grade 0,[2]; [4],5
same,Classification and statistics of the grade of pesticide damage: Grade 1,[2]; [4],6
same,Classification and statistics of the grade of pesticide damage: Grade 2,[2]; [4],5
same,Classification and statistics of the grade of pesticide damage: Grade 3,[2]; [4],0
same,Classification and statistics of the grade of pesticide damage: Grade 0,[2]; [5],0
same,Classification and statistics of the grade of pesticide damage: Grade 1,[2]; [5],0
same,Classification and statistics of the grade of pesticide damage: Grade 2,[2]; [5],16
same,Classification and statistics of the grade of pesticide damage: Grade 3,[2]; [5],0
same,Scores,"[2]; pesticide damage score 0-100, isoxaflutole 140 g ai/ha (2×), 7 DAT, Table 2",33
same,Scores,"[2]; pesticide damage score 0-100, isoxaflutole 280 g ai/ha (4×), 7 DAT, Table 2",67
